Read-outs that look alike come from different tables or passages of the source.

In assay [1] the target is T1, folate receptor 1 (FOLR1) (human, UniProt P15328 25-234). Put plainly: flow cytometry, T47D cells. On the technique in general: In flow cytometry, cells or beads pass a laser one at a time.
Assay [2] concerns the target T1, folate receptor 1 (FOLR1). Put plainly: flow cytometry, T47D cells. The source holds these as a separate data set.

T1 sequence (P15328 25-234): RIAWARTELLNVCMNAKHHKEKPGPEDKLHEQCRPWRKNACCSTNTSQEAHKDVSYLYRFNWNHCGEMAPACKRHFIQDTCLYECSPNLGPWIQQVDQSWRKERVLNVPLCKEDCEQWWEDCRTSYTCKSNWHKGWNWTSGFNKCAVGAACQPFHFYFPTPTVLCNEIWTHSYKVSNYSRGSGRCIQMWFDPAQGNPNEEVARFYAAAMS

B1: huMOV19-14 conjugate (antibody, V domains shown)
VH: QVQLVQSGAEVVKPGASVKISCKASGYTFTGYFMNWVKQSPGQSLEWIGRIHPYDGDTFYNQKFQGKATLTVDKSSNTAHMELLSLTSEDFAVYYCTRYDGSRAMDYWGQGTTVTVSS
VL: DIVLTQSPLSLAVSLGQPAIISCKASQSVSFAGTSLMHWYHQKPGQQPRLLIYRASNLEAGVPDRFSGSGSKTDFTLTISPVEAEDAATYYCQQSREYPYTFGGGTKLEIKR
The term EC50 denotes the concentration at which the effect is half-maximal. A higher EC50 goes with lower potency in that assay. In assay [1], B1 had an EC50 of 0.379 nM.

B2: huMOV19-90 conjugate (antibody, V domains shown)
VH: B1 VH
VL: B1 VL
B2 gave an EC50 in assay [2] of 0.371 nM.
